The values below come from publication PMC4763987, “Calcium-induced tetramerization and zinc chelation shield human calprotectin from degradation by host and bacterial extracellular proteases† †Electronic supplementary information (ESI) available: Supplementary Tables S1–S6, supplementary Fig. S1–S22. Data for protease activity controls are included …” (Chemical Science, 2015).

Positions count from the first letter of the chain named. Numbers in names are those of the source.

This experiment deals with T1, S100A9(C3S) subunit of CP-Ser (human, UniProt P06702 1-114, C3S).
T1 construct: S100A9 (calgranulin B, MRP-14), human, 114 amino acids; also called β subunit
T1 sequence (looked up): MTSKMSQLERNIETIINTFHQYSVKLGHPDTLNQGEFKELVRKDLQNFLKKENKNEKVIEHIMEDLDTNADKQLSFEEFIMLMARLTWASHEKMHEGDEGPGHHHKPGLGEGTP
Briefly: co-purification; subunits overexpressed and purified as described previously (ref. 19); the protocol affords the S100A8/S100A9 heterodimer; subunits judged by gel electrophoresis and mass spectrometry.

B1: S100A8(C42S)(I60E) subunit (natural protein, human, UniProt P05109 1-93, looked up)
chain: MLTELEKALNSIIDVYHKYSLIKGNFHAVYRDDLKKLLETESPQYIRKKGADVWFKELDENTDGAVNFQEFLILVIKMGVAAHKKSHEESHKE
notes: S100A8, human, 93 amino acids; also called S100A8 subunit of I60E
On to B1, for which the binding result was “binds”.

B2: S100A8(C42S)(I60K) subunit (natural protein, human, UniProt P05109 1-93, looked up)
chain: B1 chain with E60K
notes: S100A8, human, 93 amino acids; also called S100A8 subunit of I60K
Regarding B2, the binding result is given as “binds”.
